Data reported in publication PMC12700780, “The PavDREB1E–PavD8–PavHY5 module integrates light and gibberellin signals to regulate sweet cherry anthocyanin biosynthesis”.

B1: ProPavCHS probe (dsDNA)
DNA 1: GGGAAAGAAATTAAGTCGGTAGATGATATT
DNA 2: AATATCATCTACCGACTTAATTTCTTTCCC
B2: ProPavUFGT probe (dsDNA)
DNA 1: ACTTCACGAGCTCATCGACTAATAAGAAAG
DNA 2: CTTTCTTATTAGTCGATGAGCTCGTGAAGT
B3: ProPavDFR probe (dsDNA)
DNA 1: GTAATTACCACCGACCAAAAAAGAACATTG
DNA 2: CAATGTTCTTTTTTGGTCGGTGGTAATTAC

Tests used:
PavDREB1E-GST;PavD8-GST = PavDREB1E-GST;PavD8-GST (Prunus avium;Prunus avium, UniProt A0A6P5RM44;A0A6P5SVV0 1-238;1-537, |); test: EMSA; 2 ug PavDREB1E-GST with 2, 4, 6 ug PavD8-GST; PavD8 enhances the shifted band; Chemiluminescent EMSA kit (Beyotime), manufacturer's instructions; 2 ug PavDREB1E-GST in PavD8 assays; buffer, salt, pH and temperature not stated; details: protein: recombinant;recombinant; tags: GST;GST; label: biotin; only one strand given
Chain of PavDREB1E-GST;PavD8-GST (chain, as listed by the source |, chain 1 of 2): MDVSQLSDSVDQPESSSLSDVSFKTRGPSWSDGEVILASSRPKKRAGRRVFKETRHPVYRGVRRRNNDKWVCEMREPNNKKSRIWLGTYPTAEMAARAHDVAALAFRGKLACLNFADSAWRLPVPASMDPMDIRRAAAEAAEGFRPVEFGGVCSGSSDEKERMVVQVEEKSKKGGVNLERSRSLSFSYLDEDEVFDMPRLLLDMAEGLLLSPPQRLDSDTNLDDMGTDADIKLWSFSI
Chain of PavDREB1E-GST;PavD8-GST (chain, as listed by the source |, chain 2 of 2): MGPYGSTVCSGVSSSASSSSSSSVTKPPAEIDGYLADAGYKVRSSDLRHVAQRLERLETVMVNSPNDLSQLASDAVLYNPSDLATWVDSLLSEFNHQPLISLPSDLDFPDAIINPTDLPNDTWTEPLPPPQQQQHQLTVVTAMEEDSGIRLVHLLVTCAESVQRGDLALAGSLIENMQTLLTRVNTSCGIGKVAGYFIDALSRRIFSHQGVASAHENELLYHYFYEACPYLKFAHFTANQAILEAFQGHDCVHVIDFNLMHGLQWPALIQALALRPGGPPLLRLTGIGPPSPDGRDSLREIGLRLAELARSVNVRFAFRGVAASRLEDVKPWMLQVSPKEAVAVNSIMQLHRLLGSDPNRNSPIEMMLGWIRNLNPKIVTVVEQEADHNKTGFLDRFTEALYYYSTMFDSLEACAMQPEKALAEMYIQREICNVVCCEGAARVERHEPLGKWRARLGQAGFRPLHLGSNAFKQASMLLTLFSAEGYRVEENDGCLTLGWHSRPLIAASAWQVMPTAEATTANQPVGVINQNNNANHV

PavDREB1E-GST = PavDREB1E-GST (Prunus avium, UniProt A0A6P5RM44 1-238); test: EMSA; unlabeled probe competes; Chemiluminescent EMSA kit (Beyotime), manufacturer's instructions; 2 ug PavDREB1E-GST in PavD8 assays; buffer, salt, pH and temperature not stated; details: protein: recombinant; tags: GST; label: biotin; only one strand given
Chain of PavDREB1E-GST (A0A6P5RM44 entry or part of it): as the sequence (chain, as listed by the source |, chain 1 of 2) above

Binder	binding result (PavDREB1E-GST;PavD8-GST)	binding result (PavDREB1E-GST)
B1	binds	binds
B2	binds	binds
B3	binds	binds
